Test results taken from paper PMC11289409, “Coupling sensor to enzyme in the voltage sensing phosphatase” (Nature Communications, 2024).

Biological target: the molecule itself
Assay: cryo-EM structure; Dr-VSP (C302S) in MSP2N2 lipid nanodiscs (Dr-VSP:MSP2N2:lipid 1:4:400), 20 mM Tris, 150 mM NaCl, 5 mM EGTA, pH 8, 5.6 mg/ml; class of particles with the cytoplasmic domain as a dimer, 3.0 Å

B1: Danio rerio voltage-sensing phosphatase (Dr-VSP) with the active site cysteine mutated to serine (C302S) (enzyme, UniProt Q4V9E4 1-511, looked up)
chain: MTSVHFNPGLDSKEVNGNSVKEEAEVQIDDGKEETKDPDTMYHQVRKKITPFVMSFGFRVFGLVLIILDIIMVIVDLSLSEKSRDVGGAPETVSLVISFFFLIDVLLRVYVEGFKVYFSSKLNIVDACIVVITLVVTMIYAFSDFSGASLIPRVVTFLRSLRILILVRIFRLASQKRELEKVTRRMVSENKRRYQKDGFDLDLTYVTERVIAMSFPSSGKQALYRNPIREVVRFLDTKHMDHYKVFNLCSEKGYDPKFFHYRVERVMIDDHNVPSLDDMLRYTACVRDWMAADSRNVIAIHSKGGKGRTGTMVCTWLIDSDQFESAQESLDYFGERRTDKSMSSKFQGVETPSQSRYVGYYEIMKNQYNRQLPPRKSLKIKSIRIHSIAGVGKGNGSDLKLKIIVKHELVFQCVCAKQHNCTVFPDTGSNAVVISLQDGPIVTGDVKVMFESSAGLPKGYEDCPFYFWFNTSFVENYRLFLSREELDNPHKPKTWDIYKEDFGVTLSFTEP
notes: Danio rerio voltage-sensing phosphatase (Dr-VSP), full-length construct in a modified pPICZ-B vector, with C302S; only the cytoplasmic domain is resolved in the dimer map; The methods name the full-length Dr-VSP construct; also called Dr-VSP (C302S); Danio rerio VSP C302S; not shown: eGFP, C-terminal, cleaved; His10, C-terminal, cleaved
stoichiometry N: 2
